B1: TPR t1 (parent)
chain: GACCAAUCUGCCCUCAGAGCUCGAGAACAUCUUCGGAUGCAGAGGAGGCAGGCUUCGGUGGCGCGAUAGCGCCAACGUCCUCAACCUCCAAUGCAUCCCACCACAUGAUGAUGCCUGAAGAGCCUUGGUUUUUUG

Variants of: B1
Experiment: polymerase ribozyme fitness, log enrichment relative to wild type (log ratio); higher = more active; in vitro selection for triplet polymerase activity
Summary of the method: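 Fitness measures genotype enrichment against wild-type enrichment on a logarithmic scale, with inverse-variance-weighted averaging of replicates. The logarithm is base 2, and genotypes were kept only with ≥10 input reads and ≥1 read per output in Illumina sequencing. The sequenced libraries came from one triplicate in vitro selection round, including frozen incubation at −7 °C, of PCR-built, transcribed mutant libraries of each subunit of a heterodimeric triplet polymerase ribozyme.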

Variant	polymerase ribozyme fitness (log ratio)
GACCAAUCUGCCCUCAGAGCUCGAGAACAUCUUCGGAAGCUGAUGAGGCAGGCUUCGGUGGCGCGAUAGCGCCAACGUCCUCAACCUCCAAUGCAUCCCACCACAUGAUGAUACCUGAAGAGCCUUGGUUUUUUG [U38A A41U G44U G113A]	-5.6
GACCAAUCUGCCCUCAGAGCUCGAGAACAUCUUCGGUUGCAGAGGAGGCAGGCUUCGGUGGCGCGAUAGCGCCAACGUCCUCAACCUCCAAUGCAUCCCACCACAUGAUGAAGCCUGAAGAGCCCUGGUUUUUUG [A37U U112A U125C]	1.04
GACCAAUCUGCCCUCAGAGCUCGAGAACAUCUUCGGAGGCAGGGGAGGCAGGCUUCGGUGGCGCGAUAGCGCCAACGUCCUCAACCUCCAAUGCAUCCCACCACAUGAUGAUGCCUGAAGAGCCUUGGUUUUUUG [U38G A43G]	-2.91
GACCAAUCUGCCCUCAGAGCUCGAGAACAUCUUCGGAAGCAGAGGAGGCAGGCUUCGGUGGCGCGAUAACGCCAACGUCCUCAACCUCCAAUGCAUCCCACCACAUGAUGAUGCCUGAAGAGCCUUGGUUUUUUG [U38A G69A]	-4.51
GACCAAUCUGCCCUCAGAGCUCGAGAACAUCUUCGGACGCAGAGGAUGCAGGCUUCGGUGCCGCGAUAGCGCCAACGUCCUCAACCUCCAAUGCCUCCCACCACAUGAUGAUGCCUGAAGAGCCUUGGUUUUUUG [U38C G47U G61C A95C]	-3.89
GACCAAUCUGCCCUCAGAGCUCGAGAACAUCUUCGGACGCAGAGGAGGCAGGCUUUGGUGGCGCGAUAGCGCCAACGUCCUCAGCCUCCAAUGCAUCCCACCACAUGAUGAUGCCUGAAGAGCCUUGGUUUUUUG [U38C C56U A84G]	-1.53
GACCAAUCUGCCCUCAGAGCUCGAGAACAUCUUCGGACGCAGAGGAGGCAGGCUUCAGUGGCGCGAUAUCGCCAACGUCCUCAACCUCCAAUGCAACCCACCACAUGAUGAUGCCUGAAGAGCCUUGGUUUUUUG [U38C G57A G69U U96A]	-3.58
GACCAAUCUGCCCUCAGAGCUCGAGAACAUCUUCGGACGCAAAGGAGGCAGGCUUCGGUGGCGCGAUAGCGCCAACGUCCUCAACCUCCAAUGCAUCCCACCACAUGAUGAUGCCUGUAGAACCUUGGUUUUUUG [U38C G42A A118U G122A]	-3.31
GACCAAUCUGCCCUCAGAGCUCGAGAACAUCUUCGGUUGCAGAGGAGGCAGGCUUCGGUGGCGCGAUAGCGCCAACGUCCUCAACCUCCAAUGCAUCCCACCACAUGAUGAUGCCUGAAGAGCCUUGGUUCUUUG [A37U U131C]	-0.648
GACCAAUCUGCCCUCAGAGCUCGAGAACAUCUUCGGAGGCUGAGGAGGCAGGGUUCGGUGGAGCGAUAGCGCCAACGUCCUCAACCUCCAAUGCAUCCCACCACAUGAUGAUACCUGACGAGCCUUGGUUUUUUG [U38G A41U C53G C62A G113A A119C]	-5.91
GACCAAUCUGCCCUCAGAGCUCGAGAACAUCUUCGGACGCAGAGGAGGCAGGUUUCGGUGGCGCGAUAGCGCCAACGUCCUCAACCUCCAAUGCAUCCCACCACAUGAUGAUGCCAGAAGGGCCUUGGUUUUUUG [U38C C53U U116A A121G]	0.589
GACCAAUCUGCCCUCAGAGCUCGAGAACAUCUUCGGAAGCAGAGGAGGCAGGCUUCGCUGGCGCGAUAGCGCCAACGUCCUCAACCUCCAAUGCAUCCCACCACAUGAUGAUGCAUGAAGAGCCUUGGUUUUUUG [U38A G58C C115A]	-1.1
GACCAAUCUGCCCUCAGAGCUCGAGAACAUCUUCGGACGCAGAGGAGGCUGGCUUCGGUGGCGCGAUAGCGCCAACGUCCUCAACCUCCAAUGCAUCCCACCACAUGAUGAUGCCUGAAGAGCCUUGGUUUUUUG [U38C A50U]	-0.941
GACCAAUCUGCCCUCAGAGCUCGAGAACAUCUUCGGUUGCAGAGGAGGCAGGCUUCGGUGGCGCGAUAGCGCCAACGUCCUCAACCUCCAAUGCAUCCCACCACACGAUGAUGCCUGAGGAGCCUUGGUUUUUUG [A37U U106C A119G]	0.31
GACCAAUCUGCCCUCAGAGCUCGAGAACAUCUUCGGACGCAGAGAAGGCAGGCUUCGGUGGCGCGAUAGCGCCAACGUCCUCAACCUCCAAUGCAUCCCACCACAUGAUGAUCCCUGAAGAGCCCUGGUUUUUUG [U38C G45A G113C U125C]	-3.38
GACCAAUCUGCCCUCAGAGCUCGAGAACAUCUUCGGUUGCAGAGGAGGCAGGCUUCGGGGGCGCGAUAGCGCCAACGUCCUCAACCUCCAAUGCAUCCCACCACAUGAUGAUGCCUGAAGAGCGUUGGUUUUUUG [A37U U59G C124G]	1.68
GACCAAUCUGCCCUCAGAGCUCGAGAACAUCUUCGGUUGCAGAGGAGGCAGGCUUCGGUGGCGCGAUAGCGCCAACGUCCUCAACCUCCAAUGCAUCCCACCACAUGAUGAUGCCUGAAGAGCCAUGGUUUUUUG [A37U U125A]	-1.35
GACCAAUCUGCCCUCAGAGCUCGAGAACAUCUUCGGAAGCAGAGGAGGCAGGCUUCGGUGGCGCGAUAGCGCCAACGUCCUCAACCUCCAAUGCAUCCCACCACAUGAUGAUGCCUGAAGAGCCUUGGUUUCUUG [U38A U132C]	-0.329
GACCAAUCUGCCCUCAGAGCUCGAGAACAUCUUCGGAAGCAGAGGAGGCAGGCUUCGGUGGCGCGAUAGCGCCAACGUCCUCAACCUCCAAUGCAUCCCAACACAUGAUGAUGCCUGAUGUUCCUUGGUUUUUUG [U38A C101A A119U A121U G122U]	-2.88
GACCAAUCUGCCCUCAGAGCUCGAGAACAUCUUCGGAAGCAGAGGAGGCAGGCUUCGGUGGCGCGAUAGCGCCAACGUCCUCAACCUCCAAUGCAUCCCACCACAUGAUGAUGCCUGAAGAGCCUUGGUUUUAUG [U38A U133A]	-0.815
GACCAAUCUGCCCUCAGAGCUCGAGAACAUCUUCGGACGCAGAGGAGGCAGGCUUCGGUGGCGCGAUAGCGCCAACGUCCUCAACCUCCCAUGCAUCCCACCACAUGAUGAUGCCUGAAGAGCCUUGGUUUUUUG [U38C A90C]	-1.49

Variant	polymerase ribozyme fitness (log ratio)
GACCAAUCUGCCCUCAGAGCUCGAGAACAUCUUCGGAAGCAGAUGAGGCAGUCUUCGGUGGCGCGAUAGCGGCAACGUCCUCAACCUCCAAUGCAUCCCACCACAUGAUGAUGCCUGAAGAGCCUUGGUUUUUUG [U38A G44U G52U C72G]	-4.73
GACCAAUCUGCCCUCAGAGCUCGAGAACAUCUUCGGAAGCAUAGGAGGCAGGCUUCGGUGGCCCGAUAGCGCCAACGUUCUCAACCUCCAAUGCAUCCCACCACAUGAUGAUGCCUGAAGAGCCUUGGUUUUUUG [U38A G42U G63C C79U]	-3.1
GACCAAUCUGCCCUCAGAGCUCGAGAACAUCUUCGGAAGCAGUGGAGGCAGGUUUCGGUGGCGCGAUAGCGCCAACGUCCUCAACCUCCAAUGCAUCCCACCACAUGAUGACGCCUGAAGAGCCUUGGUUUUUUC [U38A A43U C53U U112C G135C]	-0.362
GACCAAUCUGCCCUCAGAGCUCGAGAACAUCUUCGGAAGCAGAGGAGGCAGGCUUCGGUGGCGCGAUAGCGCCAACGUCCUCAACCUCCAAUGCAUCCCACCACAUGAUGAUCCCUGAAGAGCCUUGGUUUUUUG [U38A G113C]	-2.81
GACCAAUCUGCCCUCAGAGCUCGAGAACAUCUUCGGAGGCAGUGGAGUCAGGCUUCGGUGGCGCGAUAGCGCCAACGUCCUCAACCUGCAAUGCAUCCCACCACAUGAUGAUGCCUGAAGAGCCUUGGUUUUUUG [U38G A43U G48U C88G]	-5.48
GACCAAUCUGCCCUCAGAGCUCGAGAACAUCUUCGGAAGCAAAGGAGGCAGGCUUCGGUGGCGCGAUAGCGCCAACGUCCUCAACCUCCAAUGCAUCCCACCACAUGAUGAUGCCUGAAGAGCCUUGGUUUUUUG [U38A G42A]	-2.86
GACCAAUCUGCCCUCAGAGCUCGAGAACAUCUUCGGACGCAGAGGAGGCAGGCUUCGGUGGCGCGAUAGCGCCAACGUCCUCAACCUCCAAUGCAUCCCACCACAUGACGAUGCCUGAAGAGCCUUGGUUUUUUG [U38C U109C]	-4.71
GACCAAUCUGCCCUCAGAGCUCGAGAACAUCUUCGGAAUCAGAGGAGGCAGGCUUCGGUGUCGCGAUAGCGCCAACGUCCUCAACCUCUAAUGCAUCCCACCACAUGAUGCUGCCUGAAGAGCCUUGGUUUUUUG [U38A G39U G61U C89U A111C]	-3.54
GACCAAUCUGCCCUCAGAGCUCGAGAACAUCUUCGGAAGCAGAGGAGCCAGGCUUCGGUGGCCCGAUAGCGCCAACGUCCUCAAUCUCCAAUGCAUCCCACCACAUGAUAAUGCCUGAAGAGCCUUGGUUUUUUG [U38A G48C G63C C85U G110A]	-5.19
GACCAAUCUGCCCUCAGAGCUCGAGAACAUCUUCGGAGGCAGUGGAGGCAGGCUUCGGUGGCGCGAUAGCGCCAACGUCCUCAACCCCCAAUGCAUCCCACCACAUGAUGAUGCCUGAAGAGCCUUGGUUUUUUG [U38G A43U U87C]	-2.42
GACCAAUCUGCCCUCAGAGCUCGAGAACAUCUUCGGAAGCAGAGGAGGCAGGCUUCGGUGGCGCGAUAGCGCCAACGUCCUCAACGUCCAAUGCAUCCCACCACAUGAUGAUGCCUGUAGAGCCUUGGUUUUUUG [U38A C86G A118U]	-1.76
GACCAAUCUGCCCUCAGAGCUCGAGAACAUCUUCGGACGCAUAGGAGGCAGGCUUCGGUGGGGCGAUAGCGCCAACGUCCUCAACCUCCAAUGCAUCCCACCACAUGAUGAUGCCUGAAGAGCCUUGGUUUUUUG [U38C G42U C62G]	-5.61
GACCAAUCUGCCCUCAGAGCUCGAGAACAUCUUCGGAAGCAGAGGAGUCAGGCUUCGGUGGCGCGAUAGCGCCAACGUCCUCAACCUCCAAUGCAUCCCACCACAUGAUAAUGCCUGAAGAGCCUUGGUUUUUUG [U38A G48U G110A]	-3.21
GACCAAUCUGCCCUCAGAGCUCGAGAACAUCUUCGGACGCAGGGGAGGCAGGCUUCGGUGGCGCGAUAGCGCUAACGUCCUCAACCUCCAAUACAUCCCACCACAUGAUGAUGCCUGAAGAGCCUUGGUUUUUUG [U38C A43G C73U G93A]	-4.56
GACCAAUCUGCCCUCAGAGCUCGAGAACAUCUUCGGAAGCAGAGGAGGUAGGCUUCGGUGGCGCGAUAGCGCCAACGUCCUCAACCUUCAAUGCAUCCCACCACAUGAUGAUGCCUGAAGAGCCUUGGUUUUUUG [U38A C49U C88U]	-1.59
GACCAAUCUGCCCUCAGAGCUCGAGAACAUCUUCGGUUGCAGAGGAGGCAGGCUUCGGUGGCGCGAUAGCGCCAACGUCCACAACCUCCAAUGCAUCCCAACACAUGAUUAUGCCUGAAGAGCCUUGGUUUUUUG [A37U U81A C101A G110U]	-5.35
GACCAAUCUGCCCUCAGAGCUCGAGAACAUCUUCGGAAGCCGAGGAGGCAGGCUUCGGUGGCGCGAUAGCGUCAACGUCCUCAACCUCCAAUGCAUCCCACCACAUGAUGAUGCCUGAAGAGCCUUUGUUUUUUG [U38A A41C C72U G127U]	-4.53
GACCAAUCUGCCCUCAGAGCUCGAGAACAUCUUCGGAAGCAGAGUAGGCAGGCUUCUGUGGCGCGAUAGCGCCAACGUCCUCAACCUCCAAUGCAUCCCACCACAUGAUGAUGCCUGAAGAGCCUUGGUUUUUUG [U38A G45U G57U]	-2.52
GACCAAUCUGCCCUCAGAGCUCGAGAACAUCUUCGGAAGCAGAGGAGGCAGGCUUCGGUGGCGCGAUAGCGCUAACGUCCUCAACCUCCAAUGCAUCCCACCACAUGAUGAUGACUGAAGUGCCUUGGUUUUUUG [U38A C73U C114A A121U]	-1.65
GACCAAUCUGCCCUCAGAGCUCGAGAACAUCUUCGGACGCAGAGGAGGCAGGCUUCUGUGGCGCGAUAGCGCCAACGUCCUCAACCUCCAAUGCAUCCCACCACAUGAUGAUGCCUCAAGAGCCUUGGUUUUUUG [U38C G57U G117C]	-5.11
GACCAAUCUGCCCUCAGAGCUCGAGAACAUCUUCGGAAGCAGAGGAGGCAGGCGUCGGUGGCGCGAUAGCGCCAACGUCCUCAACCUCCAAUGCAUCCCACCACAUGAUGAUGCCUGAAGAGCCUUGGUUUUUUG [U38A U54G]	-0.848

From the RNAGym collection of RNA variant scans (doi:10.1073/pnas.2313332121)
